Entries after “also recorded” stand apart in the source; their conditions may differ.
Experiments:
[1] = test system: HLA-DRB1*0401 restricted OspA-specific human T cell clones; experiment: Cytokine production by T cell clones on stimulation with OspA; type: cell-based; settings: for production of interferon gamma by T cell clones: FIG. 3A; for production of interleukin 13 by T cell clones: FIG. 3B
Description: (§1) Binding of OspA to HLA-DRB1*0401 is determined by measuring stimulation of T cells reactive with wildtype OspA. The stimulation of T cells is determined by measuring OspA-induced proliferation or cytokine production, including interferon gamma and interleukin 13 (see Examples, below).
(§2) Human T cells were cloned from the synovial fluid of an HLA DRB1*0401 homozygous patient based upon their ability to recognize the epitope OspA165-173 in the context of HLA-DRB1*0401. These clones were then tested for their ability to respond functionally to wild type versus FTK OspA by either proliferation or cytokine secretion.
(§3) Three different human DR4-restricted T cell clones from a patient with treatment-resistant Lyme arthritis were selected for their ability to respond to the wild type OSpA165-173 peptide. […] These T cells proliferate in response to stimulation with wildtype OspA, but not FTK-OspA.

[2] = test system: N40 B. burgdorferi; experiment: Mouse vaccination and B. burgdorferi challenge, protection against Lyme arthritis; type: in vivo, mice; settings: trials A and B together; for mice protected from development of arthritis: 10 μg vaccine on days 0, 14, 28, day 35 challenge with 5×10^3 or 1×10^4 N40 B. burgdorferi in footpad, day 56 histology; for mice protected from development of arthritis (protected/total): same protocol, number of mice
Source text: The mouse vaccination protocol was based upon experiments in the literature which initially identified OspA as having potential as a vaccine. The vaccine has not been tested in vivo with tick challenge due to the technically difficult nature of the animal handling for such experiments. However, the artificial system used here has been utilized by others in the past and reflects accurately on the protective ability of the modified vaccine. (Fikrig et al, 1997 Immunity 6:531-539; Bockenstedt et al,1993 J Immunol 151:900-906, Fikrig et al, 1992 PNAS 89:5418-5421)
The correlation between infection and arthritis, measured for the first vaccination trial, was 1:1.
(§4) On day 35, the vaccinated mice were exposed to 5×10^3 or 1×10^4 passage 0 N40 B. burgdorferi in the right footpad. On day 56, mice were sacrificed and the following tissue samples were taken for further analysis: ankles (for histology to analyze arthritis), blood and bladder (for culture to detect B. burgdorferi), serum (for serology to determine the antibody response), and ears (for PCR to detect B. burgdorferi).

[3] = test system: HLA-DRB1*0401 restricted OspA-specific human T cell clones; experiment: Proliferation response of human DR4-restricted T cell clones to OspA; type: cell-based; settings: for proliferation response of T cell clones: three human DR4-restricted T cell clones from a patient with treatment-resistant Lyme arthritis, FIG. 2
Description: as §1, §2, §3

[4] = test system: monoclonal antibody LA-2; experiment: In vitro binding of protective anti-OspA monoclonal antibody LA-2; settings: in vitro assay, FIG. 6
Source text: Monoclonal antibody LA-2, which provides passive immunity against B. burgdorferi in mice, binds an epitope in OspA.

[5] = test system: OspA; experiment: Serum OspA-specific IgG in immunized mice; type: in vivo; settings: for serum OspA-specific IgG pre-infection: FIG. 7A; for serum OspA-specific IgG post-infection: FIG. 7B
Source text: as §4

| Molecule | production of interferon gamma by T cell clones [1] | production of interleukin 13 by T cell clones [1] | mice protected from development of arthritis [2] [%] | mice protected from development of arthritis (protected/total) [2] | proliferation response of T cell clones [3] | binding of monoclonal antibody LA-2 [4] | serum OspA-specific IgG pre-infection [5] | serum OspA-specific IgG post-infection [5] | ability to stimulate OspA-specific T cell clones (proliferation or cytokine secretion) ([3]; clones from synovial fluid of an HLA DRB1*0401 homozygous patient) |
| --- | --- | --- | --- | --- | --- | --- | --- | --- | --- |
| wildtype OspA: recombinant wildtype B. burgdorferi outer surface protein A [reference compound] | induces production | induces production | 75 | 12/16 | proliferate | binds; also recorded: equivalently | similar | similar |  |
| FTK-OspA (protein) KQNVSSLDEKNSVSVDLPGEMKVLVSKEKNKDGKYDLIATVDKLELKGTSDKNNGSGVLEGVKADKSKVKLTISDDLGQTTLEVFKEDGKTLVSKKVTSKDKSSTEEKFNEKGEVSEKIITRADGTRLEYTGIKSDGSGKAKEVLKGFTLEGKLTAEKTTLVVKEGTVTLSKNISKSGEVSVELNDTDSSAATKKTAAWNSGTSTLTITVNSKKTKDLVFTKENTITVQQYDSNGTKLEGSAVEITKLDEIKNALK | not | not | 87.5 | 14/16 | not | binds; also recorded: equivalently | similar | similar | significantly decreased |
